Molecular target: the molecule itself
Assay: crystal structure

Row | Protein | stoichiometry N | binding result
1 | Recombinant wild-type L-chain ferritin from horse spleen (natural protein, UniProt P02791 1-175, looked up) MSSQIRQNYSTEVEAAVNRLVNLYLRASYTYLSLGFYFDRDDVALEGVCHFFRELAEEKREGAERLLKMQNQRGGRALFQDLQKPSQDEWGTTLDAMKAAIVLEKSLNQALLDLHALGSAQADPHLCDFLESHFLDEEVKLIKKMGDHLTNIQRLVGSQAGLGEYLFERLTLKHD | 24 | 
2 | Fr-H114A (natural protein, horse, UniProt P02791 1-175, looked up) MSSQIRQNYSTEVEAAVNRLVNLYLRASYTYLSLGFYFDRDDVALEGVCHFFRELAEEKREGAERLLKMQNQRGGRALFQDLQKPSQDEWGTTLDAMKAAIVLEKSLNQALLDLAALGSAQADPHLCDFLESHFLDEEVKLIKKMGDHLTNIQRLVGSQAGLGEYLFERLTLKHD |  | binds
3 | Fr-A115G (natural protein, horse, UniProt P02791 1-175, looked up) MSSQIRQNYSTEVEAAVNRLVNLYLRASYTYLSLGFYFDRDDVALEGVCHFFRELAEEKREGAERLLKMQNQRGGRALFQDLQKPSQDEWGTTLDAMKAAIVLEKSLNQALLDLHGLGSAQADPHLCDFLESHFLDEEVKLIKKMGDHLTNIQRLVGSQAGLGEYLFERLTLKHD |  | binds
4 | Fr-A115V (natural protein, horse, UniProt P02791 1-175, looked up) MSSQIRQNYSTEVEAAVNRLVNLYLRASYTYLSLGFYFDRDDVALEGVCHFFRELAEEKREGAERLLKMQNQRGGRALFQDLQKPSQDEWGTTLDAMKAAIVLEKSLNQALLDLHVLGSAQADPHLCDFLESHFLDEEVKLIKKMGDHLTNIQRLVGSQAGLGEYLFERLTLKHD |  | binds
5 | Fr-S118A (natural protein, horse, UniProt P02791 1-175, looked up) MSSQIRQNYSTEVEAAVNRLVNLYLRASYTYLSLGFYFDRDDVALEGVCHFFRELAEEKREGAERLLKMQNQRGGRALFQDLQKPSQDEWGTTLDAMKAAIVLEKSLNQALLDLHALGAAQADPHLCDFLESHFLDEEVKLIKKMGDHLTNIQRLVGSQAGLGEYLFERLTLKHD |  | binds
6 | Fr-A115T (natural protein, horse, UniProt P02791 1-175, looked up) MSSQIRQNYSTEVEAAVNRLVNLYLRASYTYLSLGFYFDRDDVALEGVCHFFRELAEEKREGAERLLKMQNQRGGRALFQDLQKPSQDEWGTTLDAMKAAIVLEKSLNQALLDLHTLGSAQADPHLCDFLESHFLDEEVKLIKKMGDHLTNIQRLVGSQAGLGEYLFERLTLKHD |  | binds

From article doi:10.1101/2023.06.21.546005 (bioRxiv, 2023)
